In a protein production outcome set (Wang et al. 2014) one finds protein production data, which are given here for 18 sequences.

This data set can be described thus: label from the status in PepcDB records.
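Note: failed if final PepcDB status was selected cloned or expressed and not failed if soluble or beyond.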

In the case of “MSLSFMIGYSWTQTEPGQVNHILDQFLSSMVREAGAVNYFVLPFPFSEDRSQIDIYRDLIRSGNVDGFVLSSINYNDPRVQFLLKQKFPFVAFGRSNPDWDFAWVDIDGTAGTRQAVEYLIGRGHRRIAILAWPEDSRVGNDRLQGYLEAMQTAQLPIETGYILRGEGTFEVGRAMTLHLLDLSPERRPTAIMTLNDTMAIGAMAAARERGLTIGTDLAIIGFDDAPMVQYLFPPLSSVRQPIAEAGRKCIELLVAIVEGREPEQKHILLQPSLIIRASEGLITITTDPNSSSVDKLAAALEHHHHHH”, the protein production result is “not failed”.

Take “MSLSIVRIDAEDRWSDVVIYNNTLWYTGVPENLDADAFEQTANTLAQIDAVLEKQGSSKSRILDATIFLSDKADFAAMNKAWDAWVVAGHAPVRCTVQAGLMNPKYKVEIKIVAAVEGHHHHHH”: the protein production entry was “not failed”.

For “MSLSLSHFRITRFQFARDRVIGDSQVRADDVNVAALELVSESGEVGLGFIQTLFNPLPDQQEIESVFEHEVWPSLKGNRAIALVHRVNRPRGGNQRAYSLPFHEAVQVALWDLAAKEAGLPLHVLLGSRRNRVKAYASGLDFHLDDDAFVSLFSHAASIGYSAFKIKVGHRDFDRDLRRLELLKTCVPAGSKVMIDPNEAWTSKEALTKLVAIREAGHDLLWVEDPILRHDHDGLRTLRHAVTWTQINSGEYLDLQGKRLLLEAHAADILNVHGQVTDVMRIGWLAAELGIPISIGNTFLEAGVHMAVALPEVEWLEYSFQNFDHLVEQPIEIRDGYAYAPDRPGHGLVLSEKARGEWSRPRRLARSELGAAPENPRLPAKEGHHHHHH”, the protein production entry was “not failed”.

Regarding “MSLSTAADLLRQGAACSVLYLTSVETESLTGPQAVARASSAALSCSPRPTPAVVHFKVSAQGITLTDNQRKLFFRRHYPVNSITFSSTDPQDRRWTNPDGTTSKIFGFVAKKPGSPWENVCHLFAELDPDQPAGAIVTFITKVMLGQRKEGHHHHHH”, the protein production result is given as “not failed”.

In the case of “MSLSTIRIGGAAVNQTPIDWENNVKNILDAIEEAKNANVEILCLPELCITGYGCEDLFLTDWVAETAIEYCFEIAASCTDITVSLGLPMRIAGITYNCVCLVENGIVKGFSAKQFLANEGVHYETRWFTAWPRNHTTTFLYNDVKYPFGDVLYNVKDARIGFEICEDAWRTDRVGIRHYEKGATLVLNPSASHFAFGKSAIRYDLVIGGSERFDCTYVYANLLGNEAGRMIYDGEVLIAHKGKLIQRNDRLSFKNVNLIYADIATDSAETPETVLTQDDLEKEFEFWEATSLGLFDYMRKSRSKGFVLSLSGGADSSACAIMVAEMIRKGLKELGLTAFLQKSNMETLFDLPALQHLPFEEQAKKITAVFLTTAYQSTRNSGDETYTSAKTLAESIGATFYNWSVDEEIEQYKATIENVIERPLTWEKDDITLQNIQARGRAPIIWMLTNVKQALLITTSNRSEGDVGYATMDGDTAGGIAPIAGVDKDFIRSWLRWAEKNRNQHGLHIVNKLAPTAELRPSEYTQTDERDLMPYDVLARIERKAIKERLSPVQVYTALLTEGPYTKNEFKYWVKKFFRLWSINQWKRERLAPSFHMDDFNIDPRSWYRFPILSSGFAKELNDLDQEGHHHHHH”, the protein production result was “not failed”.

With “MSLSWEIEELDREIGKIKKHSLILIHEEDASSRGKDILFYILSRKLKSDNLVGMFSISYPLQLIIRILSRFGVDVIKYLENHRLAIVDTFGSFHGIKATMPGVWYLEGMLSSETLPIKYAKAVEDHKKVWMDLNLFEGRELYGFAISMSGYLEVFTPEETLRYLETSAEVRYGHPAYKKYPRGTNFWLWEGVKDKRVLLSVYRRADYVLKTRSSLGENGIKRELLVIKTPKPIEELVRFEYEFKGNEPKLRREGHHHHHH”, the protein production entry is “not failed”.

Regarding “MSLTDEPKLLAEPREGVPNVIDTLPAFRDYCSELASSHGSLAADAERASGFRYGHEDWLVQFKRDGAGIGLLDPQALAAAGADWNDFNRAVGDAVWILHDSLQDLPGFDELGMEPQRLFDTEIAARLLGLKRFGLAAVTEHFLGLTLAKEHSAADWSYRPLPRDWRNYAALDVELLIELETKMRAELKRQGKMEWAQEEFDYALKEGLGPRKEHLIPWMHVSHITEVMRDRQALAIVRALWTRRDELAREYDIAPTLLLSDSSIIEVAKRKPHNAAQFRSIRSINERVRIHTDSEQDKMFERYAPIQRKIKPSMWKNIIQDALALPPSEWPDVDGGAARRHESQSASAPKSIRVWKERYPERLQVLNRVRKAVSQIAEDTRTPVEIVIKPQYLRNLCWTDEPRKRDVARFLSEQGARDWQVSLVAESVSRAIEGHHHHHH”, the protein production entry is reported as “not failed”.

Consider “MSLTGNAQAATIADPSTLVVDTVGPVLTIGLNRPKKRNALNDGLMAALKDCLTDIPDQIRAVVIHGIGDHFSAGLDLSELRERDATEGLVHSQTWHRVFDKIQYCRVPVIAALKGAVIGGGLELACAAHIRVAEASAYYALPEGSRGIFVGGGGSVRLPRLIGVARMADMMLTGRVYSAAEGVVHGFSQYLIENGSAYDKALELGNRVAQNAPLTNFAVLQALPMIAEANPQTGLLMESLMATVAQSDQEAKTRIRAFLDHKTAKVREGHHHHHH”, for which the protein production result is given as “not failed”.

On to “MSLTHVIWDMGETLNTVPNTRYDHHPLDTYPEVVLRKNAKETLEKVKQLGFKQAILSNTATSDTEVIKRVLTNFGIIDYFDFIYASNSELQPGKMEKPDKTIFDFTLNALQIDKTEAVMVGNTFESDIIGANRAGIHAIWLQNPEVCLQDERLPLVAPPFVIPVWDLADVPEALLLLKKISEGHHHHHH”, for which the protein production entry was “not failed”.

“MSLTKIDAYAHILPAKYYQKMLSVEPNIPNMFPFIKIKTLMDLDERLTKWPDQNTKQVISLANISPEDFTDSKTSAELCQSANEELSNLVDQHPGKFAGAVAILPMNNIESACKVISSIKDDENLVGAQIFTRHLGKSIADKEFRPVLAQAAKLHVPLWMHPVFDARKPDNNLVFSWEYELSQAMLQLVQSDLFQDYPNLKILVHHAGAMVPFFSGRIDHILDEKHAQDFKKFYVDTAILGNTPALQLAIDYYGIDHVLFGTDAPFAVMPSGADQIITQAINDLTISDKDKQKIFHDNYYSLIKEGHHHHHH”: the protein production result was “not failed”.

Regarding “MSLTKVSSLGYPRLGENREWKKLIEAYWAGKVSKNDLFAGAKELRLDFLKKQLNAGLDLIPVGDFSLYDHILDLSVQFNIIPKRFAKEPIDIDLYFAIARGNKENVASSMKKWFNTNYHYIVPEWSKQRPKLNNNRLLDLYLEAREVVGDKAKPVITGPITYVALSTGVEDFTAAVKSLLPLYKQVFTELVKAGASYIQVDEPIFVTDEGKDYLQAAKAVYAYFAKEVPDAKFIFQTYFEGLIDSQVLSQLPVDAFGLDFVYGLEENLEAIKTGAFKGKEIFAGVIDGRNIWSSDFVKTSALLETIEEQSAALTIQPSCSLLHVPVTTKNETDLDPVLRNGLAFADEKLTEVKRLAEHLDGREDPAYDLHIAHFDALQAADFRNVKLEDLSRVATKRPSDFAKRRDIQQEKLHLPLLPTTTIGSFPQSREIRRTRLAWKRGDISDAEYKQFIQAEIERWIRIQEDLDLDVLVHGEFERVDMVEFFGQKLAGFTTTKFGWVQSYGSRAVKPPIIYGDVQHLEPITVEETVYAQSLTDRPVKGMLTGPITITNWSFERTDIPRDQLFNQIGLAIKDEIKLLENAGIAIIQVDEAALREGLPLRKSKQKAYLDDAVHAFHIATSSVKDETQIHTHMCYSKFDEIIDAIRALDADVISIETSRSHGDIIESFETAVYPLGIGLGVYDIHSPRVPTKEEVVANIERPLRQLSPTQFWVNPDCGLKTRQEPETIAALKVLVAATKEVRQKLGNEGHHHHHH”, the protein production result is given as “not failed”.

For “MSLTLRVLAPDQNVFDGSADEVILPSTTGQLGILPGHISLLTAIDVGVLRVRANGGWNSIALMGGFAEVDADEVTVLVNQAELGSTIDGNTAEADFQKATTVVDGLEGQPASPEKVKAQQQLNMARARMQASKSAD”, the protein production result is on record as “failed”.

For “MSLTNHEQVLTDYLAAFIEELVRAGVKEAIISPGSRSTPLALMMAEHPILKIYVDVDERSAGFFALGLAKASKRPVVLLCTSGTAAANYFPAVAEANLSQIPLIVLTADRPHELRNVGAPQAMDQLHLYGSHVKDFTDMALPENSEEMLRYAKWHGSRAVDIAMKTPRGPVHLNFPLREPLVPILEPSPFTATGKKHHHVHIYYTHEVLDDSSIQKMVTECTGKKGVFVVGPIDKKELEQPMVDLAKKLGWPILADPLSGLRSYGALDEVVIDQYDAFLKEAEIMDKLTPEVVIRFGSMPVSKPLKNWLEQLSDIRFYVVDPGAAWKDPIKAVTDMIHCDERFLLDIMQQNMPDDAKDAAWLNGWTSYNKVAREIVLAEMANTTILEEGKIVAELRRLLPDKAGLFIGNSMPIRDVDTYFSQIDKKIKMLANRGANGIDGVVSSALGASVVFQPMFLLIGDLSFYHDMNGLLMAKKYKMNLTIVIVNNDGGGIFSFLPQANEPKYFESLFGTSTELDFRFAAAFYDADYHEAKSVDELEEAIDKASYHKGLDIIEVKTNRHENKANHQALEGHHHHHH”, the protein production result is recorded as “not failed”.

Turning to “MSLTNSSKSFTKFMAASAVFTMGFLSVPTAGAEQTNQIANKPQAIQWHTNLTNERFTTIAHRGASGYAPEHTFQAYDKSHNELKASYIEIDLQRTKDGHLVAMHDETVNRTTNGHGKVEDYTLDELKQLDAGSWFNKKYPKYARASYKNAKVPTLDEILERYGPNANYYIETKSPDVYPGMEEQLLASLKKHHLLNNNKLKNGHVMIQSFSDESLKKIHRQNKHVPLVKLVDKGELQQFNDQRLKEIRSYAIGLGPDYTDLTEQNTHHLKDLGFIVHPYTVNEKADMLRLNKYGVDGVFTNFADKYKEVIKEGHHHHHH”, the protein production result is listed as “not failed”.

In the case of “MSLTRTQTYRATIESDIESYLKKAIPIRAPESVFEPMHHLTFAAPRTSASALCVAACELVGGDRSDAMAAAAAVHLMHVAAYTHENLPLTDGPMSKSEIQHKFDPNIELLTGDGIIPFGLELMARSMDPTRNNPDRILRAIIELTRVMGSEGIVEGQYHELGLNQLNDLELIEYVCKKKEGTLHACGAACGAILGGCDEDKIEKLRRFGLYVGTVQGLLGKNRSGFEGRIKELKELAVKELESFGGEKIELIRGVFELEHSLAGVEGHHHHHH”, the protein production result is “not failed”.

As to “MSLTTRHTIGARLLLAFAFSTSLLTIVSLVAWGTWSRLDYQVAELLNQSVPKYNTSYVLETRSSEIRRRIQLIVSATSKVTLNQQYQRLQEDFTAIHAALASLPQNEQQAALQQGYTELRQTTQQINDLVSARIDVDRRLALFAEQLDWLHQDIGMELSPMRQELQWQLERGGAAQPQAQVMFQTINLIQTILDGETQAFLFVDELLKAKHLTQVDNGMRVLQYRLDELSRLSQPLFTQPSSIAYQQLLEEWRNVLRLEGDFQQSLRDRVVLTQKLESTSEQLQIQLDQQHTAIADLVANADALFVQVKGQTAQLVQEGNRVLLICFGLSIGLSLLLMYYFVHKRIVGRLHRLSESLDAIIHNDLSHPITVDGKDEIGALSEQLILYGKKVEEMERTNALSLINNTQASLITCDRYGQIESANPSAMATLRLESLAQPLTLWSCFAKHVQPKVGNULLLFDKKGNLIQKGAESLTLSLGNPEKPHYLRLYLRRYSQGLHDKIIVTITDVTDQEHANRLLEQRVKEKTQSLREKNRELQAEVEERQRAEAHLKKTQGELIQAAKMAVVGQTMTSLAHELNQPLSAMSAYLFSARLALEEAPQAQLATSLDHIENLTERMGKIVNSLRHFARKNSSDESLQPVRLNSVVEQALVLVQTKAKRQQIKLINTLPDDLMVMADALSLEQVLINLIVNGCDASTTFAQPWVKLIALGTEQGMQRIAVIDSGQGFEHEVVDKLFTPFTTTKEVGLGLGLSICQSLVEKMQGRIALASNLEKGAMVILELQQDEKYRTAD”, the protein production entry was “failed”.

Turning to “MSLTVVLIVDDHHLIRAGAKNLLEGAFSGMRVEGAETVSDALAFLEADNTVDLILLDVNLPDAEAIDGLVRLKRFDPSNAVALISGETDHELIRAALEAGADGFIPKSADPQVLIHAVSLILEGEIFLPRSYLQGGRMAEVATPLDEGHHHHHH”, the protein production entry is on record as “not failed”.

In the case of “MSLVAARPLVLVVDDNAVNREALILYLKSRGIDAVGADGAEEARLYLHYQKRIGLMITDLRMQPESGLDLIRTIRASERAALSIIVVSGDTDVEEAVDVMHLGVVDFLLKPVDLGKLLELVNKELKIGEGHHHHHH”, the protein production entry is “not failed”.
